The supplement of paper PMC10065799, “High-throughput profiling of sequence recognition by tyrosine kinases and SH2 domains using bacterial peptide display” (eLife, 2023)

biological target: Fes (UniProt P07332); assay: phosphorylation enrichment, bacterial display (enrichment ratio); higher = better substrate or ligand; peptides without Tyr show the background
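Further: 11-residue human phosphosite peptides and single-mutation variants displayed on the E. coli surface, counted by deep sequencing, each peptide's frequency after selection divided by its frequency in the unselected input library; frequency after pTyr selection over input frequency; kinase dosed for 20-30% of maximal phosphorylation in three min.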

Sequence of Fes (P07332 whole entry, looked up): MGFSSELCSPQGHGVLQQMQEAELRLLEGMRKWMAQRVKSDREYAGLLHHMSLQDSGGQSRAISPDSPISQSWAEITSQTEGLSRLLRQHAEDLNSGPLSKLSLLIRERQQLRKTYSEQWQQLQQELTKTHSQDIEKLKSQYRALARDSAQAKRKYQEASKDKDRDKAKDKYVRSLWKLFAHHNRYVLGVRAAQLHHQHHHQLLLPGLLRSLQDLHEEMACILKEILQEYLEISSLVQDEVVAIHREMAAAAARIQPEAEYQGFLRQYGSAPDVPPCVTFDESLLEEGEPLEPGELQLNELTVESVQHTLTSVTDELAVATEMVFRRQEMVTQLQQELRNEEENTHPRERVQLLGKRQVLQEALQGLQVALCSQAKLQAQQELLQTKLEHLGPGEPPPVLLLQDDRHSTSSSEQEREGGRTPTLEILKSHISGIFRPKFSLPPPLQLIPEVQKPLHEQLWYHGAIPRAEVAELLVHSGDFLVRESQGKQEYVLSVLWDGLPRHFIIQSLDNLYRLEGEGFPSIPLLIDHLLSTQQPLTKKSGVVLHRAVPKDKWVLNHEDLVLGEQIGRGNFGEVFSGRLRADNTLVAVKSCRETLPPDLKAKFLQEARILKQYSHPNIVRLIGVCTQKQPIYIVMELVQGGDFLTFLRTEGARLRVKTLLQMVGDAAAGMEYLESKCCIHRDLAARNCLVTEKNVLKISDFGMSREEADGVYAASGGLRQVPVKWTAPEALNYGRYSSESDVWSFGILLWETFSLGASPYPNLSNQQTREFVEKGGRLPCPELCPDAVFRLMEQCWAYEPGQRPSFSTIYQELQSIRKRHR

First: GFPVHYTDVSN [DNMT3B_Y815]
Second: RRGTRYMSSRP [RPL21_Y13_F15S]
The phosphorylation enrichment of the first is higher: 0.653 for the first, 0.473 for the second.

First: VIECSYTSADG [DHCR7_Y382]
Second: SARFHYLMAEK [LDHB_Y173_R172H]
The phosphorylation enrichment of the first is higher: 1.39 for the first, 0.661 for the second.

First: EEESCYILHSS [PATJ_Y783]
Second: QSKGIYFVQLE [MGAT4B_Y262_YF]
The phosphorylation enrichment of the first is lower: 1.35 for the first, 1.71 for the second.

Going from PMQMPYDSRWE [PDGFRA_Y582_L580M] to FQEKGYNKELR [CHRND_Y38], the phosphorylation enrichment falls from 1.47 to 0.74.

First: KAIMTYVPSFY [ACTN4_Y260_S262P]
Second: KVNKIYYPDFI [LIG3_Y767]
The phosphorylation enrichment of the first is lower: 0.646 for the first, 0.762 for the second.

First: FSDPSYVKQME [CDC5L_Y464_YF]
Second: ADFPDCKFRPR [SOX11_Y116_Y116C_YF]
The phosphorylation enrichment of the first is lower: 0.939 for the first, 0.983 for the second.

First: ETPSEYLEIVR [TMEM130_Y412]
Second: FPLELYERVRM [PRKCG_Y312_YF]
The phosphorylation enrichment of the first is lower: 1.01 for the first, 1.28 for the second.

First: FDFKKYGKGLR [ZNF445_Y433_YF]
Second: WISNRSLDFSS [PRPH2_Y184_Y184S]
The phosphorylation enrichment of the first is lower: 0.671 for the first, 0.765 for the second.

Compared with TFWKKYRTFWK [CCDC70_Y125], LQTYHYHGHSM [PDHA1_Y289_R288H] is higher in phosphorylation enrichment: 0.8 for the first, 0.943 for the second.

Going from DVMDFYKTLRG [NR3C1_Y30] to AEKPKYQINNI [TJP1_Y1602], the phosphorylation enrichment falls from 0.728 to 0.682.

First: HSFQCYGRNEA [ENTPD3_Y262]
Second: SSVAGYACLAF [MVD_Y131_A128V_YF]
The phosphorylation enrichment of the first is higher: 1.28 for the first, 1.21 for the second.

Compared with MTYMFYRENLR [NLRP14_Y443_V441M], SPYAVYLFFTF [RPGRIP1_Y826_R827L] is lower in phosphorylation enrichment: 1.19 for the first, 1.08 for the second.

First: TDGIAYEFRVT
Second: LSRDVYEEDSF [RET_Y900_YF]
The phosphorylation enrichment of the first is lower: 1.51 for the first, 2.02 for the second.

First: TVLEHYRRTHC [MYBPC3_Y1119]
Second: CTTIHKNYMCN [TP53_Y234_Y234K]
The phosphorylation enrichment of the first is lower: 0.672 for the first, 0.792 for the second.

First: NNDLCYWVPEL [IARS1_Y434]
Second: SNNYIYTTLGV [FAM83B_Y639_K640T]
The phosphorylation enrichment of the first is higher: 1.22 for the first, 1.1 for the second.

Compared with QLLIKYPPEEV [ZZZ3_Y670], KFMVGYEMIAQ [GALT_Y339_L342I] is lower in phosphorylation enrichment: 1.62 for the first, 1.06 for the second.

ALRHYYKLNII [ETV6_Y402] gave a phosphorylation enrichment of 1.28.

biological target: Hck (UniProt P08631); assay: as above
Sequence (P08631 whole entry, looked up): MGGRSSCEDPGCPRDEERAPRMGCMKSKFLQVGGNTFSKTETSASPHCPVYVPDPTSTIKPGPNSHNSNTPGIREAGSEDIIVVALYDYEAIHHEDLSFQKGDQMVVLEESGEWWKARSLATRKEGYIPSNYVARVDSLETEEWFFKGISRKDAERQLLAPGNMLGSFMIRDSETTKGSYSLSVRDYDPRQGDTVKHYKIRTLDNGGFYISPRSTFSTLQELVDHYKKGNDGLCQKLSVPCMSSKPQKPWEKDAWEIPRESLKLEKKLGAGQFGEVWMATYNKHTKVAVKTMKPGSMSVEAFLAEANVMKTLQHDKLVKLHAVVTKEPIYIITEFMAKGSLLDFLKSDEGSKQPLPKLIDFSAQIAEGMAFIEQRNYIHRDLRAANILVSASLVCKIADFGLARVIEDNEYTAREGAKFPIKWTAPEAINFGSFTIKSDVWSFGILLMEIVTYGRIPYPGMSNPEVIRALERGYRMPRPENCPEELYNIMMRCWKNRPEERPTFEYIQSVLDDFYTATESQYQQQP

First: GFPVHYTDVSN [DNMT3B_Y815]
Second: RRGTRYMSSRP [RPL21_Y13_F15S]
The phosphorylation enrichment of the first is lower: 0.433 for the first, 0.621 for the second.

Compared with VIECSYTSADG [DHCR7_Y382], SARFHYLMAEK [LDHB_Y173_R172H] is lower in phosphorylation enrichment: 0.471 for the first, 0.455 for the second.

Going from EEESCYILHSS [PATJ_Y783] to QSKGIYFVQLE [MGAT4B_Y262_YF], the phosphorylation enrichment rises from 0.57 to 0.936.

Going from PMQMPYDSRWE [PDGFRA_Y582_L580M] to FQEKGYNKELR [CHRND_Y38], the phosphorylation enrichment falls from 0.794 to 0.351.

First: KAIMTYVPSFY [ACTN4_Y260_S262P]
Second: KVNKIYYPDFI [LIG3_Y767]
The phosphorylation enrichment of the first is lower: 0.425 for the first, 0.668 for the second.

Going from FSDPSYVKQME [CDC5L_Y464_YF] to ADFPDCKFRPR [SOX11_Y116_Y116C_YF], the phosphorylation enrichment rises from 0.505 to 0.545.

First: ETPSEYLEIVR [TMEM130_Y412]
Second: FPLELYERVRM [PRKCG_Y312_YF]
The phosphorylation enrichment of the first is lower: 0.652 for the first, 1.24 for the second.

Going from FDFKKYGKGLR [ZNF445_Y433_YF] to WISNRSLDFSS [PRPH2_Y184_Y184S], the phosphorylation enrichment falls from 0.45 to 0.427.

First: TFWKKYRTFWK [CCDC70_Y125]
Second: LQTYHYHGHSM [PDHA1_Y289_R288H]
The phosphorylation enrichment of the first is lower: 0.371 for the first, 0.742 for the second.

First: DVMDFYKTLRG [NR3C1_Y30]
Second: AEKPKYQINNI [TJP1_Y1602]
The phosphorylation enrichment of the first is higher: 0.434 for the first, 0.366 for the second.

First: HSFQCYGRNEA [ENTPD3_Y262]
Second: SSVAGYACLAF [MVD_Y131_A128V_YF]
The phosphorylation enrichment of the first is higher: 0.797 for the first, 0.556 for the second.

Going from MTYMFYRENLR [NLRP14_Y443_V441M] to SPYAVYLFFTF [RPGRIP1_Y826_R827L], the phosphorylation enrichment falls from 1.97 to 0.569.

Going from TDGIAYEFRVT to LSRDVYEEDSF [RET_Y900_YF], the phosphorylation enrichment rises from 0.49 to 0.875.

First: TVLEHYRRTHC [MYBPC3_Y1119]
Second: CTTIHKNYMCN [TP53_Y234_Y234K]
The phosphorylation enrichment of the first is higher: 0.5 for the first, 0.409 for the second.

Compared with NNDLCYWVPEL [IARS1_Y434], SNNYIYTTLGV [FAM83B_Y639_K640T] is higher in phosphorylation enrichment: 2.13 for the first, 7.83 for the second.

Compared with QLLIKYPPEEV [ZZZ3_Y670], KFMVGYEMIAQ [GALT_Y339_L342I] is lower in phosphorylation enrichment: 0.566 for the first, 0.507 for the second.

ALRHYYKLNII [ETV6_Y402] gave a phosphorylation enrichment of 0.527.
